*: point of attachment. FITC = O=C1OC2(c3ccc(O)cc3Oc3cc(O)ccc32)c2ccc(NC(=S)*)cc21; Ahx = NCCCCCC(=O)O
What was measured:
[1] = biological target: T1, hEGFRvIII (Homo sapiens, UniProt P00533, DELINS30-297G); assay: Phage display biopanning against hEGFRvIII with NGS enrichment analysis; type: binding; conditions: over rounds of biopanning
T1 construct: using purified and active extracellular domain for EGFRvIII protein; purchased Sino Biological
Protocol: Ph.D.-12™ Phage Display Peptide Library Kit was purchased from New England Biolabs Inc. (Beverly, MA, USA). Biopanning procedures were done according to the manufacturer's instruction with certain modifications. Briefly, a 96-well plate was coated with 150 μL hEGFRvIII (Sino Biological) (in the first two rounds at 100 μg/mL, the third round at 10 μg/mL) overnight at 4° C. Wells were washed with PBS, blocked with blocking buffer (3% BSA in PBS), washed six times with cold PBST (PBS+0.1% [v/v] Tween-20), then incubated with […] phage peptide library Ph.D.-12 for 2 hours at RT. […]
The NGS data analysis is an imperative approach to filter out all the non-specific binders and identify the putative binders. In addition, NGS also allows us to perform deeper quantitative analysis, such as calculating the frequency of amino acids distribution in each position of the peptide sequence, consensus motif and target unrelated peptides. […] This is highly useful as we can follow how the read of a peptide evolves or changes with the rounds of biopanning. […] The total number of sequences and the corresponding number of reads for each DNA sequence are recorded in a separate CSV file. […] Due to codon degeneracy, different codons can translate into same amino acids, thus after translation identical sequences exist with different reads. […]

[2] = biological target: T2, human EGF receptor variant III (EGFRvIII) on CLTH/EGFRvIII cells (human, UniProt P00533 25-1210); assay: flow cytometry, normalized MFI on EGFRvIII cells over normalized MFI on EGFR WT cells
T2 construct: whole, on cells
Protocol: On FITC-Ahx-peptides. Flow cytometry analysis was also performed to quantitatively analyze the binding affinity of the synthetized peptides to the different cell types. […] The next day, cells were treated with FITC-Ahx-peptides using a stock solution in pure DMSO at 5 mM to reach a final concentration of 10 µM (final percentage of DMSO of 0.2%). Plates were incubated for 20 min at RT. Cells were detached from the plates by a PBS fush, transferred to FACS tubes and washed 2 times with 4 mL of PBS. Cells were stained with LIVE/DEAD™ Fixable Near-IR Dead Cell Stain Kit (Thermofisher) as a viability marker. Cells were analyzed by flow cytometry on a MACSQuant Analyser 16 (Miltenyi Biotec) using the MACS Quantify software to acquire and process the data. LIVE/DEAD™ Fixable dye was excited at 640 nm and fluorescence was collected with the 785/62 nm filter. FITC was excited at 488 nm and fluorescence was collected with the 525/50 nm filter. Viable cells were gated, FITC fluorescence intensity was recorded and the mean fluorescence intensity (MFI) was measured. MFI values were then normalized by substracting MFI from blank cells and dividing by the correction factor determined using a spectrofluorimeter.

Molecule | enrichment on NGS [1] | Normalized MFI ratio vIII/WT [2]
NPIVRSAEDGQL (Negative hit peptide) [negative hit peptide from biopanning] | didn't show any significant enrichment | –
{FITC-Ahx}-YHWYGYTPENVI-NH2 (SMILES CC[C@H](C)[C@H](NC(=O)[C@@H](NC(=O)[C@H](CC(N)=O)NC(=O)[C@H](CCC(=O)O)NC(=O)[C@@H]1CCCN1C(=O)[C@@H](NC(=O)[C@H](Cc1ccc(O)cc1)NC(=O)CNC(=O)[C@H](Cc1ccc(O)cc1)NC(=O)[C@H](Cc1c[nH]c2ccccc12)NC(=O)[C@H](Cc1c[nH]cn1)NC(=O)[C@H](Cc1ccc(O)cc1)NC(=O)CCCCCNC(=S)Nc1ccc2c(c1)C(=O)OC21c2ccc(O)cc2Oc2cc(O)ccc21)[C@@H](C)O)C(C)C)C(N)=O) [FITC-Ahx-YHWYGYTPENVI-CONH2] | – | 2.1

Source: patent US20250368684A1, “NEW EGFRVIII-BINDING PEPTIDES, CONJUGATES AND USES THEREOF” (NANOTHERA BIOSCIENCES, INC., priority 2021, published 2025)
